Reference: patent US20260034253A1, “NECTIN-4 MINIPROTEIN CONJUGATES” (Aktis Oncology, Inc., priority 2022, published 2026)
Bridge positions count the residues as written; N and C are the ends. Square brackets hold non-standard residues; d marks the D form. Primed or numbered codes have the meaning given here. Ends that are not written are not given here. * marks the point of attachment. DOTA = O=C(O)CN1CCN(CC(=O)O)CCN(CC(=O)*)CCN(CC(=O)O)CC1; Biotin = O=C1N[C@H]2[C@H](CS[C@H]2CCCCC(=O)*)N1; PEG4′ = polyethylene glycol (PEG4) linker; Lys(Me3) = C[N+](C)(C)CCCC[C@H](N)C(=O)O; PEG4 = NCCOCCOCCOCCOCCC(=O)O

Experiments:
in vivo = settings: female, athymic nude, mouse, tumor (HT1376 xenograft), total radioactivity
Protocol: In-111 labeling of miniproteins with MES buffer: In-111 was neutralized with 0.5 M MES buffer pH 5.5. This mixture was added to miniproteins prepared at 2 mg/mL in water with an equivalent amount of 0.5 M MES buffer pH 5.5, in a 1.5 mL Eppendorf vial and heated at 37° C. for 60 minutes. After the reaction, an HPLC sample was taken and an equivalent amount of 10 mM DTPA in 0.1 M ammonium acetate pH 5 was added and incubated for at least 15 minutes. The sample was then used for HPLC analysis.
In-111 labeling of miniproteins with Sodium Acetate buffer: In-111 was neutralized with 0.1 M sodium acetate buffer pH 5. […] After the reaction, an HPLC sample was taken and an equivalent amount of 10 mM DTPA in 0.1 M ammonium acetate pH 5 was added and incubated for at least 15 minutes. The sample was then used for HPLC analysis.
Purification of ^111In-miniproteins: Purification was done on two of the crude reaction mixtures mixed with 10 mM DTPA in 0.1 M ammonium acetate pH 5 and incubated for 15 minutes. A 3 kDa 0.5 mL Amicon filter was used for purification and the filter was spun at 15,000 RCF for 9 minutes. Saline was used as a formulation buffer.
Animals: Female athymic nude mice (6-8 weeks of age) were purchased from Charles River Laboratories and housed according to IACUC guidelines with ad libitum feeding. Biodistribution imaging experiments were performed on both null and tumor bearing athymic nude mice. Tumor xenograft models were generated by inoculating mice subcutaneously with 3×10^6 HT1376 cells, in 200 μL (50:50 PBS/Matrigel) in the right shoulder or right flank. Tumors were monitored for 14 days prior to SPECT/CT imaging dates. Mice with tumor volumes between 150 mm^3 and 250 mm^3 were selected for study inclusion and randomized to treatment arms. An excess of 60% of required imaging study mice were inoculated with tumor cells to ensure enough mice with appropriate tumor ranges were generated.
Animal grouping and Treatment: Animals were monitored for body weight bi-weekly and at the time of experimentation, grouped into groups of n=3. Animals were administered test-agents (TAs) that were prepared as described above. Animals received one of two standard injected dose activates and mass dose injections, depending at which site imaging studies were performed. • Site-1: 350 μCi of activity (^111In) at approximately […] peptide per mouse. • Site-2: 30MBq ([…]) of activity (^111In) at approximately 1 nM ([…]) of total peptide per mouse.
Animal imaging: Animals were sedated using isoflurane gas and imaged in a 3 bed hotel using a NanoScan SPECT/CT scanner. Animals were imaged at timepoints between 10 mins and 72 h post-dosing via SPECT scan, followed by CT scans. Details of the image process and analysis are described in Example 11.
Image Processing: Images were generated as SPECT/CT pair with the SPECT reported in units of activity. Namely, the values assigned to the voxels (volume elements) comprising the SPECT images were in units of μCi. SPECT images were co-registered to the CT scan for anatomical reference, resampled to 0.2 mm^3 voxels, masked to remove the CT background, and cropped to a uniform size prior to analysis.
Estimating tissue uptake: Regions of interest (ROIs) were defined using VivoQuant software. The kidneys and bladder were segmented as fixed volume phantoms and registered using the CT for anatomical reference. Two fixed volume spheres were used to create the liver ROI. Spheres were placed at appropriate anatomical locations based on CT and SPECT signal. Group and individual master spreadsheets were generated which included the volume, activity, and concentration (Activity/Volume) at each time point for each ROI generated. Additionally, plots of activity were generated using Matplotlib based python tools to highlight trends in the data.

human Nectin-4 [1] = target: T1, human Nectin-4 (Homo sapiens, UniProt Q96NY8); test: Surface plasmon resonance (Biacore T200) binding to human Nectin-4; settings: human Nectin-4, 1:1 binding model, twenty-five degrees Celsius
T1 sequence (Q96NY8 32-510): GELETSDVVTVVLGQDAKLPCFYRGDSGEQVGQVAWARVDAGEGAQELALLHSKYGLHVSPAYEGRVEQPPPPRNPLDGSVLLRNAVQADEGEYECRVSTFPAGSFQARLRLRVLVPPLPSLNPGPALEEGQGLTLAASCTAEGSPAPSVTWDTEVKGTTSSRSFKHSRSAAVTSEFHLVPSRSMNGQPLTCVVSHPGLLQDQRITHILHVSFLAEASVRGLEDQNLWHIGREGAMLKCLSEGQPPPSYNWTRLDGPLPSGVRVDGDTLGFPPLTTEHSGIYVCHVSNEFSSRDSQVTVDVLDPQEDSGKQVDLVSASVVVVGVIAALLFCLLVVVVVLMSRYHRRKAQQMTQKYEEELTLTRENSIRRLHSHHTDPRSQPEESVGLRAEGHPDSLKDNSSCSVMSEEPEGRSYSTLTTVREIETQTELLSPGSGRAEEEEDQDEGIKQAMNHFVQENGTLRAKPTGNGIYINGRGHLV
Protocol: (§1) Peptide binding affinity to the target protein was measured by SPR using a Biacore T200 instrument. The target protein was covalently coupled to a Biacore chip surface using free amine-coupling chemistry (NHS/EDC) and all uncoupled sites were blocked with ethanolamine. Free peptides were flowed over the target protein surface in increasing concentrations to measure association (KA) and dissociation ([…]) to calculate the equilibrium dissociation constant (KD) using an appropriate binding model (see, e.g., Nikolas Stroth, J Biol Methods. 2016; 3 (1)).
(§2) In all figures (FIGS. 1A, 1B, 2A, and 2B), lines on graphs are labeled from top to bottom, beginning with letter “a,” and the corresponding concentration is noted to the right of the figure, next to the letter designating each line.
Surface plasmon resonance (SPR) analyses were performed using Biacore T200 (GE Healthcare). Target protein (“ligand”) was immobilized to a CM5 Series S sensor chip (Cytiva) using amine-coupling chemistry. Running buffer was 0.05% Surfactant P20 in HEPES buffered saline (HBS-P), pH 7.4 (Cytiva). Immobilization was performed at 25° C. Carboxyl groups in each flow cell were activated using a 1:1 mixture of 0.4 M 1-ethyl-3-(3-dimethylaminopropyl)-carbodiimide in water (EDC) and 0.1 M N-hydroxysuccinimide in water (NHS) for 7 minutes. The ligand was prepared in 10 mM Sodium acetate pH 5 (Cytiva). Pulsatile injections were made to target a specific immobilization level. Any remaining amine-reactive esters on the chip surface were blocked with a 7-minute injection of 1 M ethanolamine, pH 8.5. Three 10-second pulses of 50 mM Sodium hydroxide were then made to remove any unbound ligand. Reference cells were modified using amine coupling chemistry, omitting ligand injection.
Increase in signal (RU) is proportional to an increase in binding events between the analyte and ligand surface. The injection was then stopped, and dissociation was measured. The resulting sensorgram has reference surface and blank injection subtracted prior to curve fitting. Measured association (ka, 1/M^s−1) and dissociation (kd, s^−1) were fit to a 1:1 binding model to calculate an equilibrium dissociation constant, KD(M) for each analyte. Equilibrium binding constants (KD) and binding inhibition constants (Ki) estimated from surface plasmon resonance (SPR) or DELFIA® binding assays for exemplary compounds as set forth in Table 2A.
In this example, affinity for mouse Nectin-4 (FIG. 3A) and human Nectin-4 (FIG. 3B) were measured using a 1:1 binding model at twenty-five degrees Celsius. In both of FIGS. 3A and 3B, lines on graphs were labeled from top to bottom, beginning with letter a, and the corresponding concentration was noted to the right of the figure.

mouse Nectin-4 = target: T2, mouse Nectin-4 (Mus musculus, UniProt Q8R007); test: Surface plasmon resonance (Biacore T200) binding to mouse Nectin-4; settings: 1:1 binding model, twenty-five degrees Celsius
T2 sequence (Q8R007 31-508): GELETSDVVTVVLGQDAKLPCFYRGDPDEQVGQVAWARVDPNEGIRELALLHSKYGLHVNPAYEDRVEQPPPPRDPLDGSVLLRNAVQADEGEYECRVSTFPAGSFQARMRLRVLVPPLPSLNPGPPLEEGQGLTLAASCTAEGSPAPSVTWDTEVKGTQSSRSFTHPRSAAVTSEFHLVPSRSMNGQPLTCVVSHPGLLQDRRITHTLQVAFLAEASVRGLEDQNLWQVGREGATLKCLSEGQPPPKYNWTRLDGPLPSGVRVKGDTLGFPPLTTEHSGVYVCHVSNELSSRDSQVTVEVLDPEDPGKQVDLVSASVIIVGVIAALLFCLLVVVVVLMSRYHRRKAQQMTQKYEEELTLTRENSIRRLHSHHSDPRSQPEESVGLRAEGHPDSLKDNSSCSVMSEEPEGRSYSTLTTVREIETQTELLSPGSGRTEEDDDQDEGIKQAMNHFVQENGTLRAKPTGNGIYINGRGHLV
Protocol: as §1, §2
Surface plasmon resonance (SPR) analyses were performed using Biacore T200 (GE Healthcare). Target protein (“ligand”) was immobilized to a CM5 Series S sensor chip (Cytiva) using amine-coupling chemistry. Running buffer was 0.05% Surfactant P20 in HEPES buffered saline (HBS-P), pH 7.4 (Cytiva). Immobilization was performed at 25° C. Carboxyl groups in each flow cell were activated using a 1:1 mixture of 0.4 M 1-ethyl-3-(3-dimethylaminopropyl)-carbodiimide in water (EDC) and 0.1 M N-hydroxysuccinimide in water (NHS) for 7 minutes. The ligand was prepared in 10 mM Sodium acetate pH 5 (Cytiva). Pulsatile injections were made to target a specific immobilization level. Any remaining amine-reactive esters on the chip surface were blocked with a 7-minute injection of 1 M ethanolamine, pH 8.5. […]
Increase in signal (RU) is proportional to an increase in binding events between the analyte and ligand surface. The injection was then stopped, and dissociation was measured. […] Measured association (ka, 1/M^s−1) and dissociation (kd, s^−1) were fit to a 1:1 binding model to calculate an equilibrium dissociation constant, KD(M) for each analyte. […]
In this example, affinity for mouse Nectin-4 (FIG. 3A) and human Nectin-4 (FIG. 3B) were measured using a 1:1 binding model at twenty-five degrees Celsius. […]

Human Nectin-4 [2] = target: T3, Human Nectin-4 (human, UniProt Q96NY8 32-349, limits assumed); test: SPR (Biacore), Nectin-4 immobilised
T3 construct: Amine-coupled to the Biacore chip; also called target protein; ligand
T3 sequence: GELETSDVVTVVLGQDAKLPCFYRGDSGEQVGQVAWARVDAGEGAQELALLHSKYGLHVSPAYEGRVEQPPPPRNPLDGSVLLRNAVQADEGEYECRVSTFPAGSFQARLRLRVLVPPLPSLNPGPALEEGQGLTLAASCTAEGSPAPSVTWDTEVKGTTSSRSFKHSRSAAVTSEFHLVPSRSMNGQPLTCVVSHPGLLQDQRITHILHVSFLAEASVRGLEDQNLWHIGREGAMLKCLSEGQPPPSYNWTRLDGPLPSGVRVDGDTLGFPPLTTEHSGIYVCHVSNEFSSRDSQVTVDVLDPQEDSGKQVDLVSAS

[3] = target: T4, Nectin-4 on HT1376 urothelial cancer cells (UniProt Q96NY8 32-510); test: saturation radioligand binding (Lu-177) on HT1376 cells, 4 C, gamma counting
T4 construct: whole, on cells; also called HT1376 cells
T4 sequence (looked up): T1 sequence (Q96NY8 32-510)
Protocol: Radioligand binding was performed in HT1376 urothelial cancer cells by method of saturation. Cells were seeded at 20,000 cells per well in 96-well format 48 hours prior to assay. Lutetium-177-labeled radioconjugates of C215 and C117 were incubated with cells at 4 deg C. for 1 h at various increasing concentrations of radioligand. At the end of incubation cells were washed three times with PBS and radioactivity was quantified by gamma counting as shown in Table 3.

Molecule	tissue uptake at 4 h (in vivo)	Kd (Human Nectin-4 [2])	also measured
{DOTA-PEG4}-CEYDEEFFTALKRLRGGDICYYIQKAFQYLPGLCIEEILDNLGCS (disulfide 1-34, 20-44) [Compound C121]	2.03 %ID/g		
{DOTA-PEG4}-CEYDEQFFTALARLRGGDICYYIQEQFATVPGLCIEEILDQLGCS (disulfide 1-34, 20-44) [Compound C129]	1.77 %ID/g		
{DOTA-PEG4}-CEYDEEFFTALKRLRGGDICYYIQAKFQYLPKLCIEEILDNLGCS (disulfide 1-34, 20-44) [Compound C117]	2.29 %ID/g		
{DOTA-PEG4}-CEYDEEFFAGLKRLRGGDICYYIKKKFDKVPDLCIEEILDKLGC-OH (disulfide 1-34, 20-44) [Compound C91]			kd (dissociation) (human Nectin-4 [1]): 0.02966 s⁻¹; kd (dissociation) (mouse Nectin-4): 0.02817 s⁻¹
{DOTA-PEG4}-CEYDEQFFTALSSLRGGDICYYIQEQFANVPGICIEEILDNLGCS (disulfide 1-34, 20-44) [Compound C137]	1.12 %ID/g		
{DOTA-PEG4}-CEYDEQFFTALKALRGGDICYYIQASFNYLPDLCIEEILDNLGCS (disulfide 1-34, 20-44) [Compound C113]	1.65 %ID/g		
{DOTA-PEG4}-CEYDEEFFTALSRLRGGDICYYIQQAFQYLPGLCIEEILDNLGCS (disulfide 1-34, 20-44) [Compound C133]	1.29 %ID/g		
Ac-CEYDEEFFAGLKRLRGGDICYYIKKKFDKVPDLCIEEILDKLGC-OH (disulfide 1-34, 20-44) [Compound C9]			kd (dissociation) (human Nectin-4 [1]): 0.02271 s⁻¹; kd (dissociation) (mouse Nectin-4): 0.02134 s⁻¹
{DOTA-PEG4}-CEYDEEFFAGLKRLRGGDICYYIKKKFDKVPDLCIEEILDKLGC (disulfide 1-34, 20-44) [Compound C12]			kd (dissociation) (human Nectin-4 [1]): 0.01697 s⁻¹; Kd (human Nectin-4 [1]; read-out: KD): 10.5 nM; kd (dissociation) (mouse Nectin-4): 0.02625 s⁻¹
H-CEDDGEYFAGLQRLYGGDICYYIKLKFPKVPDLCIKEILDKLGC-OH (designed binder, disulfide 1-34, 20-44) [C1]		184 nM	
{Biotin-PEG4′}-CEYDEEFFTALKRLRGGDICEYIQA[Lys(Me3)]FQYLPGLCIEEILDNLGCS-OH (designed binder, disulfide 1-34, 20-44) [C201]		0.68 nM	
{DOTA-PEG4′}-CEYDEEFFTALKRLRGGDICYYIKKKFKKVPKLCIEEILDKLGC-OH (designed binder, disulfide 1-34, 20-44; also: DOTA labeled with lutetium-177) [Lutetium-177-labeled radioconjugate of C215]			Kd [3]: 4.24 nM
H-CEYDEEFFAGLKRLRGGDICYYIKKKFDKVPDLCIKEILDKLGC-OH (designed binder, disulfide 1-34, 20-44) [C3]		9.68 nM	
H-CEDDFQFFADLKRLRGGDICYYIRLKFDKVPDLCIKEILDKLGC-OH (designed binder, disulfide 1-34, 20-44) [C4]		14.4 nM	
CEYDEEFFAGLKRLRGGDICYYIKKKFDKVPDLCIEEILDKLGC-OH (designed binder, disulfide 1-34, 20-44) [C7]		5.5 nM	
